Laboratory results from patent publication US20240317885A1 (published 2024).

T1: Tax interacting protein-1 (TIP1), recombinant / purified protein (UniProt O14907 1-124)
T1 chain: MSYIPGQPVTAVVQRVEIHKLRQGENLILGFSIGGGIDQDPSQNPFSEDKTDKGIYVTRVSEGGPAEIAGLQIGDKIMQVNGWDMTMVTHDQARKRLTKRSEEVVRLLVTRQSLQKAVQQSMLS


How the values were obtained:
[1] = biological target: v144; assay: Biacore
[2] = biological target: v127; assay: Biacore
[3] = biological target: T1, Tax interacting protein-1 (TIP1), …; assay: ELISA
[4] = biological target: T1, Tax interacting protein-1 (TIP1), …; assay: ELISA
[5] = biological target: T1, Tax interacting protein-1 (TIP1), …; assay: Biacore
[6] = biological target: T1, Tax interacting protein-1 (TIP1), …; assay: Biacore

Binder	Kd [1] [nM]	Kd [2] [nM]	EC50 [3] [nM]	Kd [4] [nM]	Kd [5] [nM]	Kd [6] [nM]
TIP1 (other) MSYIPGQPVTAVVQRVEIHKLRQGENLILGFSIGGGIDQDPSQNPFSEDKTDKGIYVTRVSEGGPAEIAGLQIGDKIMQVNGWDMTMVTHDQARKRLTKRSEEVVRLLVTRQSLQKAVQQSMLS	0.241	0.13	–	–	–	–
human IgG1 v111 (antibody, V domains shown) VH: QMQLVQSGAEVKKPGESLKISCKGSGYSFTSNWIGWVRQMPGKGLEWMGIIYPGDSDTRYSPSFQGQVTISADKSISTAYLQWSSLKASDTAMYYCARQQGHDAFDIWGQGTTVTVSS VL: SYELTQPPSVSVSPGQTARITCSGDALPKRYAYWYRQKPGQAPVLVIQKDTERPSGIPERFSGSISGTTVTLTISGVQAEDEADYYCQSTDSSASYAVFGGGTKLTVL	–	–	0.164	0.124	0.107	0.107
